Assay [1] addresses human TIGIT (T cell immunoreceptor with Ig and ITIM domains), expressed on cells (human) (UniProt Q495A1). Kind of assay: cell-based or functional assay.
Assay [2] shares this target. Kind of assay: whole cell binding assays, n=3 (FIG. 10A).
The target in assay [3] is recombinant cynomolgus TIGIT (cynomolgus monkey). The experiment in a line: ELISA on recombinant cyno-TIGIT. In general terms: In an ELISA, binding on a coated surface is turned into a signal by an enzyme label.
The target of assay [4] is human TIGIT (T cell immunoreceptor with Ig and ITIM domains), expressed on cells (human) (UniProt Q495A1). Kind of assay: flow cytometry (CytoFlex), whole cell binding to cells expressing human TIGIT, MFI of AlexaFlour 488; one representative of three experiments.
For assay [5], the target named is recombinant human TIGIT extracellular domain (ECD) (human) (UniProt Q495A1). The experiment in a line: ELISA on recombinant human TIGIT ECD.
recombinant human TIGIT extracellular domain (ECD) (human), sequence (Q495A1 22-138 limits assumed): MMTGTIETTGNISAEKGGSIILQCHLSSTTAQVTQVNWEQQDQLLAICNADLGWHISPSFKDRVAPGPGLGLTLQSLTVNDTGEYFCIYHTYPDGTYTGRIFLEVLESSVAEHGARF

human TIGIT (T cell immunoreceptor with Ig and ITIM domains), expressed on cells (human), sequence (Q495A1 22-244 limits assumed): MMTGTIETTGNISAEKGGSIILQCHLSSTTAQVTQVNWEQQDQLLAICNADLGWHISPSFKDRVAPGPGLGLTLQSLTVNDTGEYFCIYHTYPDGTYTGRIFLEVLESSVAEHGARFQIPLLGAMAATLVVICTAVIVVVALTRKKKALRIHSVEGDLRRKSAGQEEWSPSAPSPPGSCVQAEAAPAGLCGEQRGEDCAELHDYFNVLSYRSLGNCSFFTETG

In general, EC50 refers to the concentration needed to bring the measured effect to its halfway point. The low end stands for a more potent agent, the high end for a less potent agent. Broadly, the EC50 (read off the curve) is the concentration at which the effect is half-maximal. Substance “Reference Ab 2 (same amino acid sequences as Tiragolumab, U.S. 2017/0088613 A1) (antibody)” showed an EC50, NFAT luciferase reporter assay (n=3) in assay [1] of 0.72 nM. The substance further showed an EC50 in assay [2] of 0.61 nM. Further, the EC50 (read off the curve) in assay [3] was 0.1 µg/mL; in assay [4], 0.5 nM; in assay [5], 0.1 µg/mL.

For the origin of these results see US20230134580A1.
